For assay [1], the target named is CD209 (DC-SIGN) on monocyte-derived dendritic cells (human) (UniProt Q9NNX6). Briefly: flow cytometry, percent of MoDCs positive for calcein after monospecific anti-CD209 protein A immunoliposomes (FIG. 4A).
Assay [2] has the same target. Briefly: flow cytometry, right shift of the whole histogram vs. control peak (FIG. 1).
Assay [3] shares this target. Briefly: flow cytometry; calcein signal of immunoliposomes relative to FITC signal of the mAb.

UniProt Q9NNX6, sequence (Q9NNX6 whole entry): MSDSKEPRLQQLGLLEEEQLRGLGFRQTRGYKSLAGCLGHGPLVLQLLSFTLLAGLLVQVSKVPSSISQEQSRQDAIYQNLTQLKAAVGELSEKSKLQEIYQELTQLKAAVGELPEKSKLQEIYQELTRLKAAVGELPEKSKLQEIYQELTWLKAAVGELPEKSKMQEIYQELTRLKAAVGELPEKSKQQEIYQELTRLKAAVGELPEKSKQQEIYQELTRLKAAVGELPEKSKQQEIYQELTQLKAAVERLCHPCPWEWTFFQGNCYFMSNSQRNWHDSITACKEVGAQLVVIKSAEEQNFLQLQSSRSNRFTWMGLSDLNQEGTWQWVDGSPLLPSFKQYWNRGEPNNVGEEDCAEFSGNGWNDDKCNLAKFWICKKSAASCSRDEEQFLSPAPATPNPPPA

Take “CD209-specific mAb derived from clone 120507 (IgG2b), R&D Systems (antibody)”: the liposomal targeting efficacy in assay [1] is 83.3%. The percent of cells targeted in assay [2] stood at 100%. In addition, the TEILS (immunoliposomal net targeting efficacy) in assay [3] was 110%.

Values taken from patent publication US20050142114A1.
